The text below walks through data of article PMC6202311, “Substrate Recognition and Autoinhibition in the Central Ribonuclease RNase E” (Molecular Cell, 2018).

Series [1] concerns the molecule itself. The series can be described thus: crystal structure; RNase E (1-529) D303R, D346R co-crystallised with 5' monophosphorylated MicC-ompD fusion RNA (1:1 molar ratio); 3.0 Å, space group C2; open-state quaternary structure.
Series [2] concerns the molecule itself. Put plainly: crystal structure; RNase E (1-510) D303R, D346R co-crystallised with full-length sRNA RprA; 3.95 Å, space group P6(1); 0.1 M KCl, 0.01 M MgCl2, 0.05 M Tris-HCl pH 8.5, 30% PEG 400, 20°C; tetramer as a dimer of dimers.

B1: RNase E (1–529) D303R, D346R (domain or fragment)
chain: not shown
notes: Crystallised with a 5' monophosphorylated MicC-ompD fusion RNA; Prepared as in Callaghan et al., 2005; cloned in pET16; source: E. coli BL21(DE3), purified (nickel HiTrap Chelating, optional heparin or butyl Sepharose, gel filtration)
As for B1, the binding result in series [1] is recorded as “binds”.

B2: RNase E (1–510) D303R, D346R (domain or fragment)
chain: not shown
notes: Crystallised with full-length sRNA RprA; also called RNase E (1–511); source: E. coli BL21(DE3), purified (nickel HiTrap Chelating, optional heparin or butyl Sepharose, gel filtration)
Take B2: in series [2], the stoichiometry N (usually a count of units in the complex or per binding partner) is 4.
